Reference: article PMC7911190, “One Step Histological Detection and Staining of the PTEN Tumor Suppressor Protein by a Single Strand DNA”

What was measured:
[1] = molecular target: T1, PTEN (endogenous, human tissue sections) (human, UniProt P60484 1-403); assay: histochemistry (avidin-biotin peroxidase); normal endometrium; TKT buffer; Fixed tissue sections; 5 uM aptamer in TKT (25 mM Tris-HCl pH 8, 20 mM KCl, 200 mM NaCl, 0.05% Triton X-100, 0.1% DMSO), 100 uM hemin for DNAzyme constructs, BSA; 3 h at room temperature or overnight at 4 C (25 C overnight also stated); details: protein: native; label: 5' biotin; stem-loop; 13 nt reverse-complementary primer regions form the stem
T1 sequence (P60484 whole entry): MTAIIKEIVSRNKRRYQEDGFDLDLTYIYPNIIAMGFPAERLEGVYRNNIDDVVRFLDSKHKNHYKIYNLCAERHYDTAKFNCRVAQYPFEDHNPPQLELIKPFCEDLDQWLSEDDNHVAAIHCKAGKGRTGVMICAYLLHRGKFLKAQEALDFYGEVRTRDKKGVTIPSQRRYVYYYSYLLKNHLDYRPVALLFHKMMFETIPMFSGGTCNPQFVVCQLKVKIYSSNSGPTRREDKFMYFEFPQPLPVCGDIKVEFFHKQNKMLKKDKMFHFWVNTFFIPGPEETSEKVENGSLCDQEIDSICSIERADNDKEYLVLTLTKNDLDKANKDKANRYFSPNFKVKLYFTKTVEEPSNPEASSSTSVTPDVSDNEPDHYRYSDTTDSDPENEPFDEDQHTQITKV

[2] = molecular target: T1, PTEN (endogenous, human tissue sections); assay: histochemistry (PS2.M peroxidase, DAB); hemin, K+; endometrium and colon; same scoring as MAb 6H2 in 60 samples; Fixed tissue sections; 5 uM aptamer in TKT (25 mM Tris-HCl pH 8, 20 mM KCl, 200 mM NaCl, 0.05% Triton X-100, 0.1% DMSO), 100 uM hemin for DNAzyme constructs, BSA; 3 h at room temperature or overnight at 4 C (25 C overnight also stated); details: protein: native; 5' PS2.M G-quadruplex; stem linker removed

B1: PTENz7-87-biotin (structured_DNA)
DNA: CGGAATTCCGAGCGTGGGCGTGGTCATACCGCGCCTATCGAACTCGCCACTCGCGTGCAGCTCTGTGTAGGTACGCCCACGCTCGAG
binding result [1]: binds

B2: Dual aptazyme PTENz7-70 (structured_DNA)
DNA: GTGGGTAGGGCGGGTTGGCGGTCATACCGCGCCTATCGAACTCGCCACTCGCGTGCAGCTCTGTGTAGGT
binding result [2]: binds
